The values below come from patent publication US20050037444A1 (INTERCELL, published 2005).

The labels stand for the following.
T1: soluble HLA class II molecule DRA1*0101/DRB1*0401 (human, UniProt P01903 26-216; P01911 30-227, limits assumed)
T1 construct: Recombinant soluble MHC class II heterodimer expressed in SC-2 cells (as in Aichinger et al., 1997); also called soluble DRA1*0101/DRB1*0401 molecules
T1 MHC II alpha: not shown
T1 MHC II beta: not shown

The target of the assay is T1, soluble HLA class II molecule …. The assay is described as follows: competition assay vs biotinylated UD4, L243 capture ELISA.
As for IKINHFCVVPQINSFKVIPPYGHNS (synthetic peptide) [p226-251 of Seq ID 94 (EMPBP)], the binding result is reported as “no binding (tested: 200 µM)”.
As for FPYIPDKAVYNAIVKVVVANIGYEGQ (synthetic peptide) [p620-646 of Seq ID 56 (LPXTGV)], the binding result is listed as “binds”.
As to TIFRYVEGKSLYE (synthetic peptide) [p416-428 of Seq ID 142 (LPXTGVI)], the binding result is on record as “no binding (tested: 200 µM)”.
MHVPSFQNNTTATHQN (synthetic peptide) [p254-270 of Seq ID 94 (EMPBP)]: the binding result is “binds”.
PSLNIKNVNYQYAVPSYSPT (synthetic peptide) [p306-326 of Seq ID 94 (EMPBP)]: the binding result was “binds”.
For the molecule KLLVLTMSTLFATQIMNSNHAKASV (synthetic peptide) [p4-29 of Seq ID 94 (EMPBP)], the binding result is listed as “binds”.
As for MNYGYGPGVVTSRTISASQA (synthetic peptide) [p240-260 of Seq ID 74 (ORF1hom1)], the binding result is on record as “binds”.
In the case of YDYKYFYSYKVVKGVKKYFSFSQS (synthetic peptide) [p275-299 of Seq ID 94 (EMPBP)], the binding result is given as “binds”.
For QSWWGLYALLGMLALFIPKFRKESK (synthetic peptide) [p871-896 of Seq ID 56 (LPXTGV)], the binding result is recorded as “no binding (tested: 200 µM)”.
To YKVVKGVKKYFSFSQSNGYKIG (synthetic peptide) [p284-305 of Seq ID 94 (EMPBP)] belongs “binds”.
In the case of AGGIFYNQTNQQLLVLCDGMGGHK (synthetic peptide) [p23-47 of Seq ID 114 (POV2)] it was “no binding (tested: 200 µM)”.
On to PKLRSFYSIRKSTLGVASVIVST (synthetic peptide) [p6-28 of Seq ID 56 (LPXTGV)], for which the binding result was “binds”.
Take GESLNIIASRYGVSVDQLMAANNLRG (synthetic peptide) [p96-121 of Seq ID 89 (ORF1hom2)]: the binding result is listed as “no binding (tested: 200 µM)”.
In the case of NNLRGYLIMPNQTLQIPNG (synthetic peptide) [p117-136 of Seq ID 89 (ORF1hom2)] it was “no binding (tested: 200 µM)”.
In the case of VIVSTLFLISQHQAQA (synthetic peptide) [p24-40 of Seq ID 56 (LPXTGV)] it was “no binding (tested: 200 µM)”; in that of ALVFEKSVVIANVGDSRA (synthetic peptide) [p107-124 of Seq ID 114 (POV2)], “no binding (tested: 200 µM)”.
On to IKLVSYDTVKDYAYIRFSVSNGTKA (synthetic peptide) [p209-233 of Seq ID 142 (LPXTGVI)], for which the binding result is “binds”.
As to KEFKSFYSIRKSSLGVASVAISTL (synthetic peptide) [p6-30 of Seq ID 142 (LPXTGVI)], the binding result is reported as “binds”.
Regarding FMVEGQRVRTISTYAINNTRCTIF (synthetic peptide) [p395-418 of Seq ID 142 (LPXTGVI)], the binding result is “no binding (tested: 200 µM)”.
In the case of MTLPLMALLALSSIVAFVLPRKRKN (synthetic peptide) [p623-647 of Seq ID 142 (LPXTGVI)] it was “no binding (tested: 200 µM)”.
In the case of KDYAYIRFSVSNGTKAVKIVSSTHFNN (synthetic peptide) [p218-244 of Seq ID 142 (LPXTGVI)] it was “binds”.
